According to the supplement of paper PMC10065799, “High-throughput profiling of sequence recognition by tyrosine kinases and SH2 domains using bacterial peptide display” (eLife, 2023):

Key:
Fes = Fes (UniProt P07332); experiment: phosphorylation enrichment, bacterial display (enrichment ratio); higher = better substrate or ligand; peptides without Tyr show the background
FGFR1 = FGFR1 (UniProt P11362); experiment: as above
Hck = Hck (UniProt P08631); experiment: as above
c-Src = experiment: as above
Fer (mouse) = experiment: as above
Jak2 = Jak2 (UniProt O60674); experiment: as above
c-Abl (mouse) = experiment: as above
EPHB1 = EPHB1 (UniProt P54762); experiment: as above
Chain of EPHB1 (P54762 whole entry, looked up): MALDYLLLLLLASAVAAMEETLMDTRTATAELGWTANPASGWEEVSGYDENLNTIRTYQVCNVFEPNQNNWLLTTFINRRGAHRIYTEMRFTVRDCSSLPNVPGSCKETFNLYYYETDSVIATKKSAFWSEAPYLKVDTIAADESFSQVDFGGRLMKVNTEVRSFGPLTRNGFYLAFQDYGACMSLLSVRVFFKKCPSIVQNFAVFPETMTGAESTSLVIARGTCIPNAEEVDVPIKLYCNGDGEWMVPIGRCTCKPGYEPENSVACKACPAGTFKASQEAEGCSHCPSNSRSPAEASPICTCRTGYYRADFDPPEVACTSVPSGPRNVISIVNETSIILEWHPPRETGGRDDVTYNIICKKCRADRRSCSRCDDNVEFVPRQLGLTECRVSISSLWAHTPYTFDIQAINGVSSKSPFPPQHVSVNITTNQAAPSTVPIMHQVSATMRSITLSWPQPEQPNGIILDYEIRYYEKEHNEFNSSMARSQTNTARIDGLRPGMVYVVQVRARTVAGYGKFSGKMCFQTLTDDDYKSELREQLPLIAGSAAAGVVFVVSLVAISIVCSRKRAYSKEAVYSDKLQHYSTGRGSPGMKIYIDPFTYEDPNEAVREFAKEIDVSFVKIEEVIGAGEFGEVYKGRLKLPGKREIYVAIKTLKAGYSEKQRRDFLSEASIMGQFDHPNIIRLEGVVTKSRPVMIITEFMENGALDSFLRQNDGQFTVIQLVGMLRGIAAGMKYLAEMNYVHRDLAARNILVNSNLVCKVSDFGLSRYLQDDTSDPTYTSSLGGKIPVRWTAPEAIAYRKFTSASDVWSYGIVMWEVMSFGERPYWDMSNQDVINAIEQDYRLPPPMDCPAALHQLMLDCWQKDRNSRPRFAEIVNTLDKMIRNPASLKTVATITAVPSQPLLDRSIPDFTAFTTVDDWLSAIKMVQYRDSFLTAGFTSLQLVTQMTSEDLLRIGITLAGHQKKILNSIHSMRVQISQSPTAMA

MERTK = MERTK (UniProt Q12866); experiment: as above
Chain of MERTK (Q12866 whole entry, looked up): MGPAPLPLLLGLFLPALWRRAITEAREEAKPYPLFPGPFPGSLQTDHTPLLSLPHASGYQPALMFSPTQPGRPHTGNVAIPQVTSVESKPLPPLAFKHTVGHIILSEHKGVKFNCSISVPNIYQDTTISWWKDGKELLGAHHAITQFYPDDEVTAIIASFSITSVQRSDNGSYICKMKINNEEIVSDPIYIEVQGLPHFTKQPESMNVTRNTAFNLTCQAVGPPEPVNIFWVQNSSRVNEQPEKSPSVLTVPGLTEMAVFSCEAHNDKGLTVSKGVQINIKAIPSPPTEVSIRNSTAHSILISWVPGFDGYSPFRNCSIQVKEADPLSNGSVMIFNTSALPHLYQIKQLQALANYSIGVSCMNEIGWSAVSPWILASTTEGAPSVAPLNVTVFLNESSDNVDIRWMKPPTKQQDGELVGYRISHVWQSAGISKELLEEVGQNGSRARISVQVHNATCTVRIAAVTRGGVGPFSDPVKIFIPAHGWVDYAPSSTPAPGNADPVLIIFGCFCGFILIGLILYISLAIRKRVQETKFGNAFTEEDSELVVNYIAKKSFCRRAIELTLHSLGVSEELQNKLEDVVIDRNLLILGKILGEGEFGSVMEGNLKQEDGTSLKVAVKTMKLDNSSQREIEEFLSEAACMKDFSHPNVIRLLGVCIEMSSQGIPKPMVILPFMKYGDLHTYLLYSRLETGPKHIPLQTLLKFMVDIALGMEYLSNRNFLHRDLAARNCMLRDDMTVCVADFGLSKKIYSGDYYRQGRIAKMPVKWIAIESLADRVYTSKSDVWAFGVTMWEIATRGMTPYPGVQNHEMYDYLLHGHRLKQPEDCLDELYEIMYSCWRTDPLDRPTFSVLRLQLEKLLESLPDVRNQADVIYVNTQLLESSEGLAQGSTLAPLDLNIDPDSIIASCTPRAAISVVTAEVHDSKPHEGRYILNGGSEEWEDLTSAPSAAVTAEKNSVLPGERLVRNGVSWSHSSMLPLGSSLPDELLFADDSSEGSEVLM

EPHB2 = EPHB2 (UniProt P29323); experiment: as above
FGFR3 = FGFR3 (UniProt P22607); experiment: as above
Chain of FGFR3 (P22607 whole entry, looked up): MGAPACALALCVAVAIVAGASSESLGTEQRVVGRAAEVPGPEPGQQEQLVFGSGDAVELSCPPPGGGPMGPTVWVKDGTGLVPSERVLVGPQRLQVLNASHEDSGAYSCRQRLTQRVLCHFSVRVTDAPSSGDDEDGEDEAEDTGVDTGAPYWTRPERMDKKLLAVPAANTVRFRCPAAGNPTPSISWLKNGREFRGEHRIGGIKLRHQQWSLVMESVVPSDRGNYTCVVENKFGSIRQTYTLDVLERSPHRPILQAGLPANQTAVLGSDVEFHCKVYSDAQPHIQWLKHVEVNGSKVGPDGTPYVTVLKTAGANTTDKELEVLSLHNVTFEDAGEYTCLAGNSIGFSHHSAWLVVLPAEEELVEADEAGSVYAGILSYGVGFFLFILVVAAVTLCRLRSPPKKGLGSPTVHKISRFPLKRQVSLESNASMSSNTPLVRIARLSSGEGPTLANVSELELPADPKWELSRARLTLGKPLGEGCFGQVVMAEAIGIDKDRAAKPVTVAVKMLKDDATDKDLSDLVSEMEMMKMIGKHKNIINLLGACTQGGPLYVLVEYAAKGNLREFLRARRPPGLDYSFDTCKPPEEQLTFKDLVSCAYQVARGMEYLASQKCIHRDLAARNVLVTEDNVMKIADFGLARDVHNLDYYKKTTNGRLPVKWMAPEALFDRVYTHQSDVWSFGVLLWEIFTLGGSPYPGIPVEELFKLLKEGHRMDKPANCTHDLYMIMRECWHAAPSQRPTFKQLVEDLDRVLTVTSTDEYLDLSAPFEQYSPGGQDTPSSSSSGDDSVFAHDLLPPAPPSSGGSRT

AncSZ = experiment: as above
Fyn = Fyn (UniProt P06241); experiment: as above
Chain of Fyn (P06241 whole entry, looked up): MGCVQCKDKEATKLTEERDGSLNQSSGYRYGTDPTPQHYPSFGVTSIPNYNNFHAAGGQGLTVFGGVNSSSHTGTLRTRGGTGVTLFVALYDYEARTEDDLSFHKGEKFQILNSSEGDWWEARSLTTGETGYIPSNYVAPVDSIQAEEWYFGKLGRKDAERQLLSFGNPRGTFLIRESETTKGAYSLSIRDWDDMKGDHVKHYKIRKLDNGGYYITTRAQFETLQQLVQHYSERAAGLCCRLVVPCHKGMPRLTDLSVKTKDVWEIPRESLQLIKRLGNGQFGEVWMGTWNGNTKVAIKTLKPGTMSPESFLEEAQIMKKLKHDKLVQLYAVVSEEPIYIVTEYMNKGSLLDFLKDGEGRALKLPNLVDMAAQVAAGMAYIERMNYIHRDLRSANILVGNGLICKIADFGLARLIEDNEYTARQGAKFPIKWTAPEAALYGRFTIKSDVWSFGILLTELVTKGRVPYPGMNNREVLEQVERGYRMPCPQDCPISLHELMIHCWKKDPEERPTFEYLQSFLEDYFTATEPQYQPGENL

c-Src SH2 = experiment: SH2 binding enrichment of the phosphorylated peptide, bacterial display (enrichment ratio); higher = better substrate or ligand; peptides without Tyr show the background
SHP2-C SH2 = experiment: as above
Grb2 SH2 = Grb2 SH2 (UniProt P62993); experiment: as above
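Throughout, for SH2 binding enrichment of the phosphorylated peptide, bacterial display: peptide library displayed on the E. coli surface as eCPX fusions, selected cells deep-sequenced, score is each peptide's frequency after selection divided by its frequency in the input.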
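Throughout, for phosphorylation enrichment, bacterial display: 11-residue human phosphosite peptides and single-mutation variants displayed on the E. coli surface, counted by deep sequencing, each peptide's frequency after selection divided by its frequency in the unselected input library; frequency after pTyr selection over input frequency; kinase dosed for 20-30% of maximal phosphorylation in three min.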

Chain of FGFR1 (P11362 whole entry, looked up): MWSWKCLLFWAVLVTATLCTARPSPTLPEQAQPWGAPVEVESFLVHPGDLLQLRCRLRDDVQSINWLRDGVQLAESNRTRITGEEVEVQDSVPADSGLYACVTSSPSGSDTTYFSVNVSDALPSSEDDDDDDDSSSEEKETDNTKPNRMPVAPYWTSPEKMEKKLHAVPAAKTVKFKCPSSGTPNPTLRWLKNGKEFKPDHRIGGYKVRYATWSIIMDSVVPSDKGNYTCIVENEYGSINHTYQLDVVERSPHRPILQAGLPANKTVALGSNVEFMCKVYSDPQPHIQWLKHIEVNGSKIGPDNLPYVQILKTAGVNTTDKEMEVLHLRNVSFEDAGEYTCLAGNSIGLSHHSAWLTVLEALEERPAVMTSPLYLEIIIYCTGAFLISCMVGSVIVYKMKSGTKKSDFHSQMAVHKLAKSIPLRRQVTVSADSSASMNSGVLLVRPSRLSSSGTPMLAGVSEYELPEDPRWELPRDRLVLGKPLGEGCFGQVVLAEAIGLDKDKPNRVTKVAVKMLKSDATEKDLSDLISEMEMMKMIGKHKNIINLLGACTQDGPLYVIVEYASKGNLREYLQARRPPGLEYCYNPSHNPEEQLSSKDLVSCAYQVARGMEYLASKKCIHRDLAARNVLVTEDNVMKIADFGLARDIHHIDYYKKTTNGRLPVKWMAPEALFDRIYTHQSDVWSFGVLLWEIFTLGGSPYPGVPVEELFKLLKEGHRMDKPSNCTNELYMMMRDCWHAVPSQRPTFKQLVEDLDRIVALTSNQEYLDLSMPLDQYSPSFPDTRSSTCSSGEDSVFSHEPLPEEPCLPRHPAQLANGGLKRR
Chain of Hck (P08631 whole entry, looked up): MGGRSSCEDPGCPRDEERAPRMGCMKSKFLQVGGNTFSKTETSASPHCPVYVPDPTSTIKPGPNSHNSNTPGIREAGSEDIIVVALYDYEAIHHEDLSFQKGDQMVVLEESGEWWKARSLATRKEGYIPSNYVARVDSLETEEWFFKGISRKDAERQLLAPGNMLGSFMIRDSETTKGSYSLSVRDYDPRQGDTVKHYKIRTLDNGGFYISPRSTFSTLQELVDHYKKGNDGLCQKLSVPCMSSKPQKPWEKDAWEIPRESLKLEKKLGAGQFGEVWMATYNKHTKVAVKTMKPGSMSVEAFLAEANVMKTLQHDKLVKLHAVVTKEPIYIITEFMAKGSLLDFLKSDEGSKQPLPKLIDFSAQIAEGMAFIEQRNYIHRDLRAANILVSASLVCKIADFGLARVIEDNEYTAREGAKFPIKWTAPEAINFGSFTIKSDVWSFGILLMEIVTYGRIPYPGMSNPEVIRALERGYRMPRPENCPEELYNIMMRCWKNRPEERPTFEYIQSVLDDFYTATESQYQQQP

Sequence | SH2 binding enrichment (c-Src SH2) | SH2 binding enrichment (SHP2-C SH2) | SH2 binding enrichment (Grb2 SH2) | phosphorylation enrichment (Fes) | phosphorylation enrichment (FGFR1) | phosphorylation enrichment (Hck) | phosphorylation enrichment (c-Src) | phosphorylation enrichment (Fer (mouse)) | phosphorylation enrichment (Jak2) | phosphorylation enrichment (c-Abl (mouse)) | phosphorylation enrichment (EPHB1) | phosphorylation enrichment (MERTK) | phosphorylation enrichment (EPHB2) | phosphorylation enrichment (FGFR3) | phosphorylation enrichment (AncSZ) | phosphorylation enrichment (Fyn)
GMEIVYVFVKK [DNAI2_Y5_YF] | 0.556 | 0.787 | 0.941 | 1.44 | 0.587 | 0.673 | 0.627 | 0.58 | 1.59 | 1.22 | 0.709 | 0.481 | 0.654 | 0.862 | 1.4 | 0.554
GNLLIYTEFGN [HGD_Y166_K171N] | 0.462 | 0.541 | 0.736 | 1.15 | 0.726 | 3.51 | 4.74 | 0.775 | 0.997 | 2.23 | 2.71 | 3.75 | 1.89 | 0.903 | 1.31 | 5.81
GRTGHYLCNAC [GATA1_Y223_D218G] | 0.917 | 0.872 | 1.25 | 0.631 | 0.436 | 0.392 | 0.296 | 0.32 | 0.446 | 0.375 | 0.4 | 0.481 | 0.287 | 0.433 | 0.445 | 0.332
GSESDYIIMPN [SCARB1_Y133_V135I] | 0.431 | 0.873 | 0.762 | 0.826 | 5.65 | 0.526 | 0.6 | 0.411 | 0.919 | 0.466 | 6.96 | 0.551 | 6.96 | 3.91 | 2.88 | 0.456
GSSKIYFLHPD [TLR5_Y108] | 0.751 | 1.18 | 1.16 | 0.844 | 2.48 | 1.21 | 1.83 | 0.403 | 0.714 | 0.642 | 0.529 | 2.89 | 0.624 | 1.85 | 0.849 | 1.84
HDHFGYRQSVT [CD55_Y245_R240H_YF] | 0.628 | 0.871 | 0.803 | 0.896 | 0.479 | 0.51 | 0.725 | 0.482 | 0.536 | 0.659 | 0.65 | 0.346 | 0.434 | 0.528 | 0.733 | 0.444
HDHYGYRQSVT [CD55_Y245_R240H] | 0.654 | 0.833 | 0.895 | 1.06 | 0.695 | 0.969 | 0.538 | 0.743 | 1.06 | 0.622 | 0.4 | 0.883 | 0.713 | 0.623 | 0.801 | 0.94
HEDPMYDIIRD [RP9_Y142] | 1.92 | 0.664 | 0.63 | 1.48 | 0.718 | 5.56 | 5.36 | 4.2 | 1.29 | 1.27 | 3.51 | 5.24 | 3.85 | 0.687 | 1.94 | 5.63
HHTDEYEYDEL [TGM1_Y134] | 0.584 | 0.749 | 0.906 | 1.59 | 1.02 | 0.943 | 0.916 | 0.958 | 1.19 | 1.08 | 1.02 | 0.687 | 0.904 | 1.05 | 2.01 | 1.01
HKLSYYEYDFE [BTK_Y40] | 3.4 | 0.941 | 1.05 | 2.13 | 7.25 | 0.952 | 2.48 | 0.64 | 1.6 | 1.26 | 2.02 | 3.67 | 1.38 | 4.03 | 1.86 | 2.13
HNMPIYEGYAL [ACTA1_Y168_V165M] | 2.93 | 0.893 | 0.71 | 2.64 | 0.465 | 13.5 | 10.4 | 17.4 | 0.831 | 11.3 | 19.7 | 11 | 25.5 | 0.654 | 1.3 | 13.1
HNVPIYEGYGL [ACTA1_Y168_A172G] | 1.33 | 0.886 | 0.755 | 5.48 | 0.666 | 17.4 | 11.5 | 27.9 | 0.805 | 3.23 | 31.8 | 10.9 | 41.9 | 0.941 | 1.52 | 20
HPHECYAKVFD [ALB_Y394_D389H] | 3.07 | 2.67 | 0.944 | 1.36 | 0.636 | 0.654 | 0.659 | 0.624 | 1.3 | 1.01 | 0.641 | 0.764 | 0.441 | 0.845 | 1.16 | 0.622
HRDDGYMPMSP [IRS1_Y612_T608R] | 3.65 | 0.545 | 0.746 | 0.817 | 0.534 | 0.488 | 0.589 | 0.683 | 1.16 | 0.756 | 0.577 | 0.37 | 0.53 | 0.715 | 0.785 | 0.572
HSVLQYVGGVM [FGGY_Y136] | 0.493 | 0.511 | 0.961 | 1.48 | 0.944 | 0.833 | 0.738 | 0.73 | 1.11 | 0.846 | 0.943 | 0.986 | 0.977 | 1.18 | 1.05 | 0.776

Now from value to sequence, other results behind:

SH2 binding enrichment (c-Src SH2) | SH2 binding enrichment (SHP2-C SH2) | SH2 binding enrichment (Grb2 SH2) | Sequence | phosphorylation enrichment (Fes) | phosphorylation enrichment (FGFR1) | phosphorylation enrichment (Hck) | phosphorylation enrichment (c-Src) | phosphorylation enrichment (Fer (mouse)) | phosphorylation enrichment (Jak2) | phosphorylation enrichment (c-Abl (mouse)) | phosphorylation enrichment (EPHB1) | phosphorylation enrichment (MERTK) | phosphorylation enrichment (EPHB2) | phosphorylation enrichment (FGFR3) | phosphorylation enrichment (AncSZ) | phosphorylation enrichment (Fyn)
0.476 | 0.747 | 0.818 | GMSQAYSFSQR [DES_Y5_S7F] | 0.755 | 0.392 | 0.379 | 0.495 | 0.338 | 0.551 | 0.454 | 0.317 | 0.721 | 0.453 | 0.481 | 0.761 | 0.389
0.451 | 0.659 | 0.744 | GNLQEYLTRHV [TGFBR2_Y336] | 0.828 | 0.516 | 0.465 | 0.363 | 0.462 | 0.581 | 0.667 | 0.474 | 0.368 | 0.564 | 0.584 | 0.794 | 0.455
0.577 | 0.8 | 0.653 | GQAPGYSFTAA [CYCS_Y47_YF] | 0.509 | 0.422 | 0.416 | 0.503 | 0.364 | 0.471 | 0.504 | 0.354 | 0.389 | 0.427 | 0.428 | 0.502 | 0.393
0.51 | 0.769 | 0.696 | GRDVIYKGFED [NFU1_Y194_G190R] | 1 | 0.468 | 0.96 | 1.97 | 0.426 | 0.767 | 0.561 | 0.528 | 0.391 | 0.401 | 0.539 | 0.77 | 2.94
0.555 | 0.484 | 0.649 | GRLGEYDIDEV [SMS_Y134_V132G] | 1.45 | 0.551 | 0.647 | 0.643 | 0.688 | 1.27 | 0.881 | 0.909 | 0.494 | 0.859 | 1 | 1.3 | 0.789
1.66 | 0.722 | 0.82 | GSERDYTYDEL [EIF2S2_Y174_E177D] | 1.01 | 0.507 | 0.849 | 0.766 | 0.617 | 0.999 | 0.803 | 0.504 | 0.424 | 0.879 | 0.614 | 1.14 | 0.59
0.591 | 0.717 | 0.769 | GYRVCYTPDSR [PTPRF_Y451_Y450C] | 1.26 | 0.492 | 0.547 | 0.522 | 0.505 | 0.975 | 0.794 | 0.635 | 0.434 | 0.592 | 0.739 | 1.07 | 0.498
0.64 | 0.653 | 1.06 | HCEDGYPGGSD [CTNND1_Y221_Y217C] | 1.81 | 0.664 | 0.714 | 0.514 | 0.672 | 1.34 | 1.35 | 1.03 | 0.626 | 0.743 | 1.15 | 1.44 | 0.817
0.747 | 0.598 | 0.91 | HEKKVYSFCGT [RPS6KA3_Y226_A225V] | 1.03 | 0.74 | 0.645 | 0.742 | 0.431 | 0.692 | 0.838 | 0.736 | 0.881 | 0.68 | 0.842 | 0.991 | 0.58
0.524 | 0.754 | 0.98 | HFGCVYHGTLL [MET_Y1093] | 1.67 | 1.04 | 0.9 | 4.11 | 0.967 | 1.28 | 1.33 | 1.21 | 0.637 | 0.991 | 1.19 | 1.8 | 1.08
0.872 | 1.57 | 1.16 | HFIKLYEEKTG [PARP1_Y618_M615I] | 0.952 | 0.456 | 0.828 | 0.392 | 0.798 | 1.03 | 0.781 | 1.17 | 0.694 | 1.08 | 0.807 | 1.69 | 0.978
2.48 | 0.931 | 1.21 | HGEAFYSEVKA [PAK5_Y182_P187A_YF] | 1.01 | 4.75 | 5.57 | 4.05 | 11 | 0.834 | 0.619 | 1.26 | 8.27 | 1.47 | 2.63 | 0.971 | 3.92
1.79 | 0.651 | 0.754 | HITQVYGFYDE [PPP2CA_Y127_Q122H] | 1.79 | 2.27 | 5.95 | 12.3 | 2.21 | 1.88 | 1.58 | 1.31 | 2.79 | 1.85 | 1.26 | 2.11 | 13.2
0.698 | 0.696 | 0.891 | HKGASYAFRLS [PTPRD_Y891_V892A] | 0.962 | 0.66 | 0.49 | 0.785 | 0.645 | 0.827 | 0.846 | 0.935 | 0.525 | 0.581 | 1.11 | 1.06 | 0.838
0.52 | 0.795 | 0.796 | HLVLNYGVCVC [JAK2_Y613] | 2.31 | 0.91 | 0.985 | 0.779 | 0.99 | 1.99 | 1.49 | 1.61 | 1.44 | 1.27 | 1.8 | 2.33 | 1.1
0.206 | 0.316 | 0.686 | HRGCLYLAIEF [TEK_Y899_Y897C_YF] | 1.37 | 0.667 | 0.367 | 0.49 | 0.511 | 1.33 | 1.31 | 0.758 | 0.467 | 1.81 | 1.17 | 1.29 | 0.26
0.533 | 0.566 | 0.722 | HSGVSYYINLC [IGF2R_Y2024_N2020S] | 1.93 | 0.849 | 0.729 | 0.488 | 0.951 | 2.38 | 1.21 | 1.15 | 0.563 | 0.942 | 1.09 | 1.59 | 0.661
1.31 | 1.76 | 1.08 | HSKGIYYVQLE [MGAT4B_Y262_Q257H] | 1.39 | 5.54 | 2.88 | 4.78 | 0.615 | 4.4 | 1.02 | 1.68 | 9.49 | 1.03 | 3.3 | 1.28 | 3.29
